# Data taken from the supplement of paper PMC12042874.
# ± gives the uncertainty stated by the source.
# Experiment: amyloid nucleation score (Sup35N fusion, yeast selection) (log enrichment); library NNK3; higher = more nucleation; inactive = no reads after selection
# Outline: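 Nucleation score: DiMSum log enrichment of output over input reads, centred on the mode score of non-aggregating sequences. Only sequences with at least 100 input reads were kept. Reads came from Illumina sequencing of plasmid inserts before and after 7 days of growth at 30°C without adenine and uracil, in psi-negative yeast expressing Sup35N fused to peptides of 20 random codons after 24 hours of induction with 100 μM copper sulfate.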
row,Substance,amyloid nucleation score
1,WRRCMRYGTASASSSENAHY,0.837 ± 0.18
2,MLDSRYGKMCRGEW,inactive
3,CSSSYMGQDHVFVSDSARCS,inactive
4,YNYGKGRWHALLDISKVEVK,inactive
5,AQYLLYINDPCTCVVATPCR,inactive
6,GFWINVMISKTLRYGSKAWC,inactive
7,SNITSCLNSQRKMDLAFYRV,inactive
8,NRALNW,inactive
9,FFLTYTIECVGLNHMILSIM,inactive
10,TSCLNKKHAVGFSCVFYH,inactive
11,CGRRALSTELIVCLCSPFYV,inactive
12,RAMCTALTSGTYRTCC,inactive
13,CRCNVSLGILFKRGMSKRRI,1.01 ± 0.11
14,RRVSSSLIEAYYREQSRFQI,inactive
15,VYGSQGYRGRCFHLCYYYRS,inactive
16,MGSYM,inactive
17,ISQCVCSSYA,-0.265 ± 0.7
18,LLGLFRLFKPQAFKGSPAAS,inactive
19,RGDSRFP,0.08 ± 0.88
20,IKLHGQAHLIMSTLLPYMHK,inactive
21,IFYCLSYLGTSVVEIHCLYA,inactive
22,TRAPVECNLCIGIEKDEVVR,inactive
23,VSTSPNIDSLRCFCIHVKRR,inactive

row,Substance,amyloid nucleation score
1,SVFSFCLNYSYNCIDRCKFN,inactive
2,HICIQDCVD,inactive
3,VTRCCPMWD,-0.702 ± 2.5
4,RIYSDGRSSFSRQLVWVCSR,inactive
5,RPRQSTIMKNDTSSVAVSGL,-0.582 ± 1.1
6,SWFGLAIRSV,inactive
7,VLSEESNYAKM,inactive
8,CSHYFNVYTLRCISSIGDS,inactive
9,WFSNVGVVEVASSRCREWGI,inactive
10,NLCQSAGRFCWG,inactive
11,NFSTRTGIITIGFCRVCGMR,1.97 ± 0.096
12,SSCRDVWWKVVVVPTFTGGV,inactive
13,FSTMKLISMHCRVS,inactive
14,SYGLKISLSHTFRSGRGMCG,inactive
15,SFSKNVVDL,inactive
16,TFEQVCVLL,inactive
17,EILSPVGTSTCILTSPRTCY,inactive
18,AKWVLDFVKDRLPFRFCMLV,inactive
19,SRVWMITRLFGTMA,inactive
20,IVEHIFDRGVSLEVMMMCYR,inactive
21,LVTETLFYCH,inactive
22,VDEYVLWVSYYPWWYRVNTV,inactive
23,EDMVARGSLSKGHWKDLAT,inactive

row,Substance,amyloid nucleation score
1,FVFIFWTLFGRSRVDVASNM,inactive
2,FNVKVVSKSMFYFCSYMPIV,inactive
3,YAYMYNVCYGDCRCANGVWY,2.71 ± 0.084
4,YTWLVTVTDDGCRFEFSCEF,inactive
5,NRLRV,inactive
6,WIWVVVHFYDLECQLDS,inactive
7,RCVIALMLYVILGMNGWKAS,inactive
8,RGFICIGTLYLLAPVFCARS,2.85 ± 0.062
9,PNEMGSSVMENNWTIHNFGM,inactive
10,GWIAYRGSDR,inactive
11,LWFCLFPPWITSCPFRLCRA,inactive
12,LAASVNYILRNIDCGVRMRF,inactive
13,AASRMLWPGWNIRPSDAVVE,inactive
14,DWRMLRGFYLHINCMLSFQG,inactive
15,LFVNNVVFHFIFLCPVHRTV,2.75 ± 0.06
16,NVVFSFMVTRCDRLWS,0.661 ± 0.27
17,TNVSKLLIMSFVCSIHRSHG,0.816 ± 0.18
18,TPMRHYKY,inactive
19,GLYSLYLFGTLYRQAQRGCE,0.52 ± 0.21
20,MMYNVMVSSRLMRLCFSRRV,inactive
21,LMGLNYAWDAFWLIFPGLCF,inactive
22,WQNEMYGRCVLCKLRYNEPD,inactive
23,FISSSCSFVRCILLVNYKIR,-0.66 ± 1.9

row,Substance,amyloid nucleation score
1,FHLLPKMCLLLSTLIRSGIT,inactive
2,SSWPTTGRWE,inactive
3,NIWESAVPWVTDALVYKNRV,-0.323 ± 0.96
4,VCGLLL,inactive
5,YNSYSSYKIVKLY,inactive
6,QYELIGSKYVQRFSFQANFS,2.07 ± 0.074
7,LNLNFKVRGL,0.654 ± 0.27
8,YRLYDQLRGYRGLAYLTYVL,-0.187 ± 0.69
9,IFKNTVTLRN,inactive
10,NLFSEFGMFNGKGPVGTSVG,inactive
11,RPRHDHWNDVNDATSYRYVM,inactive
12,SIAIHWTLICGLYLSNSSRA,inactive
13,HLRFFLRVVGRTFIFCHS,inactive
14,CLYLYVRLRYSLVSSSHPFL,inactive
15,FFISVLFWNPGISFRITIAA,inactive
16,TSILPRSGANVKQLLLVLFV,inactive
17,GASKHT,0.319 ± 0.33
18,PVLGPAEGITIGRGV,inactive
19,KGPRSGLVYGSSDHVFLA,inactive
20,HGVWRLSYVVVGCPLTEVSP,inactive
21,VGRNECARRMVLRKWWLYLV,inactive
22,LNDGWVLIYYSGALSDREI,inactive
23,YQGNLGPHT,inactive

row,Substance,amyloid nucleation score
1,SIPRRNRDGLAWNARHNLQY,inactive
2,IGVDVTYSKGLSGTIDKSLG,inactive
3,KVVFFTALTEPWFSPQFQGL,inactive
4,FMSTDTLRKCLSACMFGPIP,0.021 ± 0.31
5,MLLSVRRGSLWESRPRTWLM,0.535 ± 0.22
6,SDQFLIMEDSCSTPGRRSFK,0.408 ± 0.29
7,KVMNLVRFRTDFLESNMRWC,0.751 ± 0.17
8,CPCMLMMFSVGLTSSSPILC,0.268 ± 0.44
9,YNNSTFYTEPTLWD,inactive
10,LYYRGLRQRLTPKLGRFRLC,inactive
11,YKCYMFANYGIPVVVLFVVL,inactive
12,VSGMNSKLFYW,inactive
13,LLMFHCQMMSLGGYTSVSAR,inactive
14,FDVNIPFCSNSFSYHTNSGS,inactive
15,LNTLGKNNIKRSILRRSLYY,inactive
16,TRLLVWSETIAVWVRLQN,inactive
17,SYVPSTMIRMIWIMAFHRGN,-0.024 ± 0.43
18,HLGYPVVLVLLLPSDDSGHL,inactive
19,WIKGVRIRPL,inactive
20,WDMWPGI,inactive
21,QWEVR,inactive
22,SIRISLEISGYSELSITFSC,inactive
23,FSCVGGGSSNIWREVTDTCS,inactive

row,Substance,amyloid nucleation score
1,TGNDGYCVCSVCYLRICVAN,inactive
2,DTDNWVLTDKTTGCSAVNGG,inactive
3,YTSRFSSCLWESRSDEGRNM,inactive
4,RRGFFYIH,inactive
5,VTRFTYPRILLGRNVDWLSF,inactive
6,IIFFWILS,0.16 ± 0.29
7,MAGCAMRVRSYMGMKSHSEC,-0.353 ± 0.74
8,GKLLP,inactive
9,SGKHPSYNREPKGSVSVLGA,inactive
10,DKTCKVDWMSFTSHDF,inactive
11,REGFVIIVLTWLMDSQYST,inactive
12,WNFWNNFKSLEWEVLARYFF,inactive
13,YYVFVYLYSCVCFTGTGKSV,inactive
14,TNVLCRSTKNVFYTKGL,0.368 ± 0.17
15,NADTYNRSDEKMTGRYWDRR,inactive
16,QRGVLL,inactive
17,SSDSYLVRESDKSSEWGTRN,inactive
18,RLWLVYAKPGTRRCSRRMGC,inactive
19,NTRRNYNGRYLVLCIRLQLR,1.81 ± 0.072
20,IAVVTSNWVADLSPGNHTCM,-0.49 ± 0.96
21,ILTIEDGIIYC,inactive
22,IFYVLSTMNDSIVV,inactive
23,YYSFKIDRLRFVRM,inactive

row,Substance,amyloid nucleation score
1,TRVLSTSGFNQRPNCWFSTM,inactive
2,IHILFGTSWLMTRLFCLVK,inactive
3,ALRRVMVICLFKLDSEAHST,inactive
4,VYSTVF,inactive
5,DFGVGN,inactive
6,WSGNCFNQSKLAWYDHYHQW,inactive
7,WCKVRYSTNMVTSTSATLVA,inactive
8,HCRAYITEPCKTWLY,inactive
9,FNYKARYSNPVRDAIYWLQI,inactive
10,ISKLVY,inactive
11,ERHDGCFQ,inactive
12,AGPVPIT,0.723 ± 0.25
13,LRRFWDRIPCFCLFHRFSFY,inactive
14,ETYNRR,-0.227 ± 0.69
15,TKIYVLLFTSLVLVDTVLFL,-0.002 ± 0.4
16,RCNPGLVCLGCTFVSRNAYS,1.67 ± 0.081
17,KEDCGGQVNKTSGASVSSLC,inactive
18,LDCHVS,inactive
19,LCTLYWNGARWSRCFATTFY,inactive
20,RILVGLNCS,inactive
21,SSAGYVVYIVMSRS,2.65 ± 0.065
